Data on two molecules can be found in PMC4075976 (Nature structural & molecular biology, 2008).

Where no end group is shown, it is not given here.

The target of one experiment is UBE2D2/UbcH5b (UniProt P62837 1-147). Put plainly: NMR titration.
For experiment [1], the target named is full length 6xHis tagged p53 (human, UniProt P04637 1-393). Put plainly: pull-down.
full length 6xHis tagged p53, sequence (P04637 whole entry): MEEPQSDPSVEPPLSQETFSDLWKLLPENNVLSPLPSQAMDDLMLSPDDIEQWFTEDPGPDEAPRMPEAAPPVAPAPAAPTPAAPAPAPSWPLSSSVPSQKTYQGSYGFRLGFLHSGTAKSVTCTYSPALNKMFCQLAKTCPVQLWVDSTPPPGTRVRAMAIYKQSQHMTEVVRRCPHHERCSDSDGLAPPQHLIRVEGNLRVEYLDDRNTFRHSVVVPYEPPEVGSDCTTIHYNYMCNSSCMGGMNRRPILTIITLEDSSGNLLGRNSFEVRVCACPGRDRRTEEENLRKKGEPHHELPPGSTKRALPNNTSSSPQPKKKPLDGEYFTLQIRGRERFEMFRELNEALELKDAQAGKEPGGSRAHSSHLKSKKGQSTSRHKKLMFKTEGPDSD

B1: Pirh2 RING domain (GST removed) (domain or fragment)
chain: ENVSRQNCPICLEDIHTSRVVAHVLPCGHLLHRTCYEEMLKEGYRCPLCMHS
modifications: cysteine pairing not given here; also: 2 Zn ions bound
The molecule B1 displayed a dissociation constant (Kd) with UBE2D2/UbcH5b of roughly 200 µM.

B2: GST-Pirh2 NTD (domain or fragment, human, UniProt Q96PM5 1-137, looked up)
chain: MAATAREDGASGQERGQRGCEHYDRGCLLKAPCCDKLYTCRLCHDNNEDHQLDRFKVKEVQCINCEKIQHAQQTCEECSTLFGEYYCDICHLFDKDKKQYHCENCGICRIGPKEDFFHCLKCNLCLAMNLQGRHKCI
As for B2, in experiment [1], the binding result is “binds”.
